Publication PMC2668148

Test system: N[C@@H](CCC(=O)Nc1ccc([N+](=O)[O-])cc1)C(=O)O
Test: purified protein
Settings: apparent constant; hydrolysis

## HpGT (Helicobacter pylori gamma-glutamyltranspeptidase) (Helicobacter pylori 26695)
  Km: 22.1 ± 1.4 µM
  Vmax: 5.18 µmol/min/mg
